Columns and labels:
[1] = test system: neutrophils in whole blood; assay: Whole blood phagocytosis of A. fumigatus conidia by mouse neutrophils (FACS), with CD11b expression; assay type: cell-based, mice; settings: SAP pre-opsonised conidia; for phagocytosis by neutrophils: 1 and 20 min
Method: FIGS. 7a and 7b depict the effect of SAP on A. fumigatus phagocytosis by neutrophils. a), b), FACS analysis (out of 3 performed) of phagocytosis (a) and CD11b internalization (b) in neutrophils after challenge with fluorescein-labelled AF conidia (5×10^6/100 μl of blood) opsonized or not with Sap is shown. a) neutrophil phagocytosis in whole blood of wt and Apcs^−/− mice. b) CD11b expression in neutrophils of a. a) and b) Mean±SEM;*, P<0.05;**, P<0.01;***, P<0.005;****, P<0.0005 (unpaired t-test).
FIG. 7c depicts the effect of human SAP on phagocytic activity. FACS analysis of neutrophil phagocytosis in blood of wt and Apcs^−/− mice after exposure with fluorescein-labelled AF conidia (5×10^6/100 μl of blood) opsonized or not with SAP. Figure refers to 2 experiments performed.***, P<0.005;***, P<0.0005 (unpaired t-test).
Cells and in vitro phagocytic activity. Phagocytosis assay in whole blood of A. fumigatus conidia by mouse and human neutrophils was performed as described (Moalli et al., 2010). Briefly, conidia (1×10^9) were labelled (1 h, r.t.) with FITC (Sigma-Aldrich; 5 mg/ml in DMSO), and eventually opsonized (1 h, r.t) with murine SAP (100 μg/ml; […]) and PTX3 (50 μg/ml; 1.1 μM). An amount of 1×10^7 FITC-conidia were added to 200 μl of mouse whole blood (collected with heparin) and incubated for 1, 5, 10, 20 or 30 min at 37° C. in an orbital shaker. Samples were immediately placed on ice and ACK lysis solution was added to lyse erythrocytes. Murine neutrophils were analysed by BD FACS Canto™ II Flow Cytometer (BD Biosciences) as previously described, and frequency and/or mean fluorescence intensity (MFI) of FITC neutrophils and CD11b expression were reported.

U937 cells = assay: Phagocytosis of A. fumigatus conidia by U937 cells overexpressing DC-SIGN; assay type: cell-based, human; settings: U937 stably transfected for DC-SIGN and control cells
From the text: FIG. 9 depicts how SAP effect on phagocytosis is independent from its interaction with DC-SIGN. a) detection of DC-SIGN expression in transfected U937 cells by FACS. Untransfected cells and an irrelevant IgG were used as control. Mean±SD of a quadruplicate experiment is shown. b) FACS analysis of fluorescein-labelled AF conidia (1×10^7) phagocytosis by U937 cells (1×10^5) overexpressing DC-SIGN.
U937 cell lines [control (ATCC® CRL-1593.2™) and transduced with human DC-SIGN (ATCC® CRL-3253™)] were cultured in RPMI-1640 medium containing 5% FCS, 2 mM L-glutamine, 0.1 mM non-essential amino acids (all from Lonza-BioWhittaker™) and 0.05 mM 2-mercaptoethanol (BIO-RAD). DC-SIGN expression was ascertained by FACS using a rabbit polyclonal Ab (#ab5715, 5 μg/ml; AbCam, UK) and an Alexa Fluor® 488-conjugated goat anti rabbit (2 μg/ml; ThermoFisher-Molecular Probes). Phagocytosis of FITC-labelled A. fumigatus conidia (1×10^7) by U937 cells (1×10^5) was performed as above described above.

A. fumigatus conidia = assay: FACS binding of biotin-conjugated murine SAP to A. fumigatus conidia, with competition; parameters: species or system Aspergillus fumigatus; settings: Sap 0.1-10 μg/ml; Ptx3 50 μg/ml; anti-Sap monoclonal antibody detection
Method: FIG. 1 depicts the interaction of SAP with A. fumigatus conidia in mice. a) induction of SAP circulating levels after i.t. injection of 5×10^7 A. fumigatus (AF) conidia; LPS, 0.8 mg/Kg. Mean±SD. c) FACS analysis of binding of biotin-conjugated (b-) murine SAP (Sap; 10 μg/ml) to viable dormant or germinating conidia of AF (1×10^8). Human SAP (50 μg/ml) and CRP (50 μg/ml) were also used. Mean±SD of one quadruplicate experiment of two performed.
FIG. 10 depicts the susceptibility to A. fumigatus associated with single or double deficiency for SAP and PTX3. a and b, survival of wt and Apcs^−/−, Ptx3^−/− and Apcs^−/−, Ptx3^−/− mice after i.t. injection of 1×10^8 (a) or 5×10^7 (b) conidia. a, wt, n=9 (a, b); n=9 (a, b); Ptx3^−/−, n=7 (a) or n=10 (b); Ptx3^−/−, n=5 (a) or n=12 (b). a, b, P<0.05, wt vs. Apcs^−/− P<0.01 wt vs. Apcs^−/−, Ptx3^−/−; P=0.06, Apcs^−/−, Ptx3^−/− vs. Ptx3^−/− (Mantel-Cox test). a) Curves of wt and Apcs^−/− refer to the same ones shown in FIG. 2a-c FACS analysis of Sap (range from 0.1 to 10 μg/ml) binding to viable AF conidia (1×10^8) in presence of Ptx3 (50 μg/ml). An anti-Sap monoclonal antibody (non-reactive to Ptx3) was used. Mean±SD of a triplicate. **, P<0.01;***, P<0.005;****, P<0.0001 (unpaired t-test).
Binding of SAP. Conidia of A. fumigatus and A. flavus (1×10^8 CFU) were cultured 4 and 16 h under static condition in Sabouraud medium to respectively allow conidia swelling and germination. Blastospores and yeast of Candida albicans were prepared as previously described (Santus et al., 2017). Yeast (8×10^6/ml) were incubated at 37° C. for hyphal induction. Formation of hyphae was evaluated under a microscope at different time points until its amount was assessed at 95%. […] After extensive washing, samples were incubated (30 min, r. t.) with Alexa Fluor® 647-conjugated streptavidin and binding was evaluated by FACS as frequency and MFI and visualized by confocal microscopy as described. […]

B1: SAP: Serum Amyloid P component, species not printed at the place; murine Sap per legend b89 for b91, unstated for b97 (protein, UniProt P12246 21-224, looked up)
Serum amyloid P-component: QTDLKRKVFVFPRESETDHVKLIPHLEKPLQNFTLCFRTYSDLSRSQSLFSYSVKGRDNELLIYKEKVGEYSLYIGQSKVTVRGMEEYLSPVHLCTTWESSSGIVEFWVNGKPWVKKSLQREYTVKAPPSIVLGQEQDNYGGGFQRSQSFVGEFSDLYMWDYVLTPQDILFVYRDSPVNPNILNWQALNYEINGYVVIRPRVWD
CD11b internalization in neutrophils ([1]; Apcs−/− neutrophils): restored CD11b internalization
phagocytosis by neutrophils ([1]; Apcs−/− whole blood): rescued the defect
CD11b internalization in neutrophils ([1]; wt neutrophils): prompted it
phagocytosis by neutrophils ([1]; wt whole blood): potentiated phagocytosis
SAP-mediated enhancement of phagocytosis, DC-SIGN transfected versus control cells (U937 cells): similar

B2: murine PTX3: Recombinant murine PTX3 purified from Chinese hamster ovary cells (protein)
chain: ETSDDYELMYVNLDNEIDNGLHPTEDPTPCDCRQEHSEWDKLFIMLENSQMREGMLLQATDDVLRGELQRLRAELGRLAGGMARPCAAGGPADARLVRALEPLLQESRDASLRLARLEDAEARRPEATVPGLGAVLEELRRTRADLSAVQSWVARHWLPAGCETAIFFPMRSKKIFGSVHPVRPMKLESFSTCIWVKATDVLNKTILFSYGTKWNPYEIQLYLSSQSLVLVVGGKENKLAADTVVSLGRWSHLCGTWSSEQGSMSLWANGELVATTVEMAKSHSVPEGGLLQIGQEKNGCCVGGGFDESLAFSGRITGFNIWDRVLSEEEIRASGGVESCHIRGNVVGWGVTEIQAHGGAQYVS
competition of murine SAP binding to conidia (A. fumigatus conidia): competed
